The results in this text go back to patent publication US20150191517A1.

Where no end group is shown, it is not given here. [ ]: non-standard residue; d: D form.

Common to all, as to assay: cell-based or functional assay
Assay [1] has as its target Nav1.2 (rBIIa) (rat (printed only as rBIIa)) (UniProt P04775).
Assay [2] addresses Nav1.2 (rBIIa) (rat (printed only as rBIIa)), P04775.
For assay [3], the target named is human Nav1.7 alpha-subunit (human), Q15858.
Assay [4] addresses human Nav1.7 alpha-subunit (human) (UniProt Q15858).

Nav1.2 (rBIIa) (rat (printed only as rBIIa)), sequence (P04775 whole entry): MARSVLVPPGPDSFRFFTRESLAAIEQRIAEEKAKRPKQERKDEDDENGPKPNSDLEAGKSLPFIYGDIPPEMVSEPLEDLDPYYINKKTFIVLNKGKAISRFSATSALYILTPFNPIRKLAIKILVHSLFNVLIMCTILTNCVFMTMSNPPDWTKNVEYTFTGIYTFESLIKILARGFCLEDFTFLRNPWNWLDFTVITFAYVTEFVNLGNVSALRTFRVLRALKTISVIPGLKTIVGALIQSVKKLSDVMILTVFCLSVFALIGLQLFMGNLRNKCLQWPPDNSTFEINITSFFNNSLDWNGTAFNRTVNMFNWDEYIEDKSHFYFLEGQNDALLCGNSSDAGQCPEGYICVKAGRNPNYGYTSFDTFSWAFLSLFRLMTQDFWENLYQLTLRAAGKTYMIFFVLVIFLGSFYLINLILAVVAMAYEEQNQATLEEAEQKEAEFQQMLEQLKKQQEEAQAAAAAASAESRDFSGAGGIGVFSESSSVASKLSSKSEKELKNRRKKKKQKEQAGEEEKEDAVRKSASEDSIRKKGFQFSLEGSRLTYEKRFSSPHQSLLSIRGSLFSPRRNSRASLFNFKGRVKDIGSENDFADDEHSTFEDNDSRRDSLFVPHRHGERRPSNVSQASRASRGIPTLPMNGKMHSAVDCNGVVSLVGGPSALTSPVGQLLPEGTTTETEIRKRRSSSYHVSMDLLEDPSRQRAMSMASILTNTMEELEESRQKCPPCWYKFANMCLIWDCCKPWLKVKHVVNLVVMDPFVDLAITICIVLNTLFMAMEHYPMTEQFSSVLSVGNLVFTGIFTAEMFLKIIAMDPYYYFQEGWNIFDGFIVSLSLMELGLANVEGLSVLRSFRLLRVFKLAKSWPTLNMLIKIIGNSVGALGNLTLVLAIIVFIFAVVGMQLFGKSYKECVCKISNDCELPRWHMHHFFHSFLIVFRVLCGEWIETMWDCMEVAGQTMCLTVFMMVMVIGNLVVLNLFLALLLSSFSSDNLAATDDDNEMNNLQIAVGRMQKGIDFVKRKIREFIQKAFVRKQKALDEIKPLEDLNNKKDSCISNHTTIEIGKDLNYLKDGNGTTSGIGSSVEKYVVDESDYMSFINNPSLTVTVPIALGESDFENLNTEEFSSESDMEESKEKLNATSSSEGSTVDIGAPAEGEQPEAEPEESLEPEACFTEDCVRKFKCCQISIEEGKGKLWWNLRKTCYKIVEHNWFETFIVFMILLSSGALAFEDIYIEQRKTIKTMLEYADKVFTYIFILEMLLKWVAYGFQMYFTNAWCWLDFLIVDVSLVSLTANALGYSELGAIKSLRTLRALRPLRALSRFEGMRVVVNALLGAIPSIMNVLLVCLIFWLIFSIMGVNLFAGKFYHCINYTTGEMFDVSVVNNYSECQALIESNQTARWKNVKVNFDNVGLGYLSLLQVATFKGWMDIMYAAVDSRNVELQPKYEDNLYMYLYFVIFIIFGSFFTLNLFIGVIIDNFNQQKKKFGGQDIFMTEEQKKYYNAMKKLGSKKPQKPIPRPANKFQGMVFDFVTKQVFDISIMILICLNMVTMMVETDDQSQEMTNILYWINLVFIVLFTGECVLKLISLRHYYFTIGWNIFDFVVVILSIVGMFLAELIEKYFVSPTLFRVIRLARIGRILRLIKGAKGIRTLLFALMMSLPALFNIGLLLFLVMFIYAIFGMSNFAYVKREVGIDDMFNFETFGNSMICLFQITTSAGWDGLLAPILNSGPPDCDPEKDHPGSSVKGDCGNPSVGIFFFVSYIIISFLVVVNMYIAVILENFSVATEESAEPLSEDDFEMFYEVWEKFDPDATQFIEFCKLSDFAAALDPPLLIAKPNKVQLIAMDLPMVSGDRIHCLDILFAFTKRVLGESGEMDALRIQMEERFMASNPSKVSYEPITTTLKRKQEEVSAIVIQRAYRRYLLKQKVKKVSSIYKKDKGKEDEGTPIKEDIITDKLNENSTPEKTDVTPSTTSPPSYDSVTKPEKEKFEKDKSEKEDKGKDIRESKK
human Nav1.7 alpha-subunit (human), Q15858, sequence (Q15858 whole entry): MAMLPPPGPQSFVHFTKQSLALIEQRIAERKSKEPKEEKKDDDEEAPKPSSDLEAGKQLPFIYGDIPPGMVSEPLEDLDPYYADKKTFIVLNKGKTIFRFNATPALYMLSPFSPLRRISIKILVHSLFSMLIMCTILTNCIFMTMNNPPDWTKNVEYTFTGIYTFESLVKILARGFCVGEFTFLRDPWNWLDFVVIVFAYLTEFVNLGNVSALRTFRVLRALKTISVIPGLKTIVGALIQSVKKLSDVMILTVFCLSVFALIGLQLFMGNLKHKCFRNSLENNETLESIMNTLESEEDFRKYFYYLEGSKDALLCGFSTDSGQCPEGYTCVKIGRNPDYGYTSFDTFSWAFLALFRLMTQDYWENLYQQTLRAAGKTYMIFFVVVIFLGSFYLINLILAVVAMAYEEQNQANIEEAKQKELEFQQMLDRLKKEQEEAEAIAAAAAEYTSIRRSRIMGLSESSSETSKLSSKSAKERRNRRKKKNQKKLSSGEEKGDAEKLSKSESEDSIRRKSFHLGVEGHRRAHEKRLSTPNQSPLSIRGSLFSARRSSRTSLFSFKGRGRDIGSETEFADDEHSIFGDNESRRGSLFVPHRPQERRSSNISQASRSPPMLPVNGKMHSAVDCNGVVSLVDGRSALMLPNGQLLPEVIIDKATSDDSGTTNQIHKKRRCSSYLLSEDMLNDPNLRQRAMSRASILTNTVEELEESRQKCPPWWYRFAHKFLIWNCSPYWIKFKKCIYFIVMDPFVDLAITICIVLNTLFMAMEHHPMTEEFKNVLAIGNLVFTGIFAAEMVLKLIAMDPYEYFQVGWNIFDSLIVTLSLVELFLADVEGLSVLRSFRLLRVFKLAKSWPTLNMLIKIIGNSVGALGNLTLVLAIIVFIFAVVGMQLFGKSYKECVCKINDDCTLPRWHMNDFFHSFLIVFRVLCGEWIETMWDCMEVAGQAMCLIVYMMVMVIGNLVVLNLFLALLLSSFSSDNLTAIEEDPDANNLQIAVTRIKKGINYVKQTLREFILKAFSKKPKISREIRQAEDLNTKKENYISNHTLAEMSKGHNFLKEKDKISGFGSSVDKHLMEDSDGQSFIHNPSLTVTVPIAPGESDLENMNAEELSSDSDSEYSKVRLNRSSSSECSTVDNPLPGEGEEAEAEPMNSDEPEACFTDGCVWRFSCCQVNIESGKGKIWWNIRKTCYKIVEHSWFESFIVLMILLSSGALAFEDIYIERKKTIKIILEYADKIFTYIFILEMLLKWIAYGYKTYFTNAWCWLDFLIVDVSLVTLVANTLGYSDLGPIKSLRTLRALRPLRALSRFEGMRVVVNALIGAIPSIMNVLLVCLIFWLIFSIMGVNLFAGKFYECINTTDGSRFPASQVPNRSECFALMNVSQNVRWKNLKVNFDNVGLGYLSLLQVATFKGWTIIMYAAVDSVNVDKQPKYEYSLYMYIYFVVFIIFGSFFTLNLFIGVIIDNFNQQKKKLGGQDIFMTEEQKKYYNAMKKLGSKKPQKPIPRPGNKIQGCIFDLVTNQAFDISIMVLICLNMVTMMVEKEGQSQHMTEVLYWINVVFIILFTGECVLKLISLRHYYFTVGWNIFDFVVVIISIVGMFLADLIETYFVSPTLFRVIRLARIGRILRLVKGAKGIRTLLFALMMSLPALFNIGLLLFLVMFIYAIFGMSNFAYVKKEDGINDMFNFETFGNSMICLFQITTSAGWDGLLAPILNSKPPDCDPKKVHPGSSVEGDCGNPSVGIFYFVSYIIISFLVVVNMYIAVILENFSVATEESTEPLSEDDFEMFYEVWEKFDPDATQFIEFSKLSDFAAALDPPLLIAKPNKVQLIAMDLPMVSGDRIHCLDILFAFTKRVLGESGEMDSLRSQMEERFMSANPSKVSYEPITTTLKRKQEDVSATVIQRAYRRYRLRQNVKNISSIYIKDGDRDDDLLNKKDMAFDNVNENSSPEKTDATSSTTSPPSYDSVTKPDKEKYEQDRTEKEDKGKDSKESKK
human Nav1.7 alpha-subunit (human), sequence (Q15858 whole entry): as above
Nav1.2 (rBIIa) (rat (printed only as rBIIa)), P04775, sequence (P04775 whole entry): as the sequence (P04775 whole entry) above

In assay [1], Protoxin II (peptide) came in with a Nav1.2 IC50 (nM), EP (electrophysiology) sodium channel blocking activity of 100 nM and a Nav1.2 IC50 (nM), FLIPR sodium channel blocking activity of 379 nM.

B1: Protoxin II (D)-NHcyclohexyl (peptide)
peptide: YCQKWMWTCDSERKCCEGMVCRLWCKKKL[dW]-NHcyclohexyl
modifications: ends and bridges not checked
As for B1, the Nav1.2 IC50 (nM), FLIPR sodium channel blocking activity in assay [2] came out at 336 nM. In assay [3], this molecule registered a Nav1.7 IC50 (nM), FLIPR sodium channel blocking activity of 31 nM.

B2: Protoxin II-D-Trp (peptide)
peptide: YCQKWMWTCDSERKCCEGMVCRLWCKKKLWW
modifications: not fully specified; ends and bridges not checked
B2 gave a Nav1.2 IC50 (nM), FLIPR sodium channel blocking activity in assay [1] of 102 nM. In addition, in assay [4], the Nav1.7 IC50 (nM), FLIPR sodium channel blocking activity came to 16.5 nM.
